B1: library; numbered along this chain (parent)
chain: MAAAGGARLLRAASAVLGGPAGRWLHHAGSRAGSSGLLRNRGPGGSAEASRSLSVSARARSSSEDKITVHFINRDGETLTTKGKVGDSLLDVVVENNLDIDGFGACEGTLACSTCHLIFEDHIYEKLDAITDEENDMLDLAYGLTDRSRLGCQICLTKSMDNMTVRVPETVADARQSIDVGKTS

Variants of: B1
Test: scaled log2 fold change in cell abundance, elesclomol vs control (0 = silent mean, 1 = nonsense mean) (scaled log2 ratio); higher = higher viability under elesclomol (loss of FDX1 cuproptosis function)
Details: glucose 10 mM
Method: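 Deep mutational scan of full-length human FDX1: a pooled saturation-mutagenesis ORF library (every residue 2-184 mutated to all 19 amino acids plus stop, and silent codons where available) was expressed by lentivirus in FDX1-knockout ABC1 (14 days) or HEK293T (11 days) cells grown with elesclomol (ES) or DMSO control. Variant abundance came from ORF sequencing. The log2 fold change (ES vs control, mean of duplicates) was centred on the silent-variant mean (0) and scaled to the nonsense-variant mean (1). Higher values mean greater viability under ES, i.e. loss of FDX1 function in cuproptosis.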

[1] = with ABC1 FDX1 KO, elesclomol 5 nM, 14 days
[2] = with HEK293T FDX1 KO, elesclomol 40 nM, 11 days
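Note: variant abundance is its share of total variant reads in each endpoint sample, from next-generation sequencing of the integrated ORF PCR-amplified out of genomic DNA.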

Variant	scaled log2 fold change [1]	scaled log2 fold change [2]
V16P	-0.0976	0.175
V16C	0.174	0.501
V16M	0.215	0.406
V16I	-0.31	–
V16W	-0.405	–
V16Y	0.461	0.705
V16K	0.121	0.118
V16R	-0.0133	–
V16F	-0.9	0.654
V16E	-0.716	–
V16S	0.228	-0.117
V16T	0.119	-0.636
V16N	-0.645	-0.143
V16G	-0.0956	0.0318
V16A	-0.668	–
V16D	0.0655	-0.0447
V16L	0.316	-0.316
V16Q	0.575	–
R11L	0.0826	0.444
R11S	0.406	-0.404
R11C	0.0344	-0.198
R11A	0.289	-0.22
R11G	0.36	-0.443
R11E	-0.0252	-0.275
R11P	0.346	–

Variant	scaled log2 fold change [1]	scaled log2 fold change [2]
R11M	-0.24	0.88
R11D	0.509	–
R11K	0.0892	1.03
R11V	0.177	-0.49
R11Q	0.24	0.0461
R11W	0.0433	0.0594
R11T	0.0343	-0.658
R11F	0.139	-0.474
R11Y	0.189	0.793
R11N	0.137	0.131
R11H	0.0541	-0.696
R11I	0.175	-0.673
S14P	0.707	–
S14Y	0.283	0.523
S14D	0.306	–
S14V	0.113	–
S14G	0.603	–
S14H	-0.573	–
S14E	0.366	0.442
S14M	0.348	0.298
S14I	-0.891	-0.397
S14F	-0.657	–
S14L	-0.903	0.688
S14K	-0.193	0.475
S14R	0.602	–

Variant	scaled log2 fold change [1]	scaled log2 fold change [2]
S14C	0.43	-0.264
S14A	0.422	0.495
S14Q	-0.469	–
S14T	-0.472	–
S14W	-0.0995	-0.0707
L9K	0.158	–
L9R	0.455	-0.0809
L9G	0.0757	1.11
L9C	0.282	-0.0336
L9M	0.105	0.772
L9I	-0.993	-0.482
L9W	0.434	0.233
L9D	0.403	-0.529
L9V	0.286	-0.433
L9Y	0.485	-0.192
L9T	0.431	–
L9E	0.282	-0.224
L9Q	-0.0581	1.04
L9H	-0.458	0.226
L9N	0.353	-0.636
L9F	-0.0603	0.0924
L9S	0.156	-0.659
L9P	0.629	0.0788
A12G	0.259	-0.297
A12Y	0.376	0.577

Variant	scaled log2 fold change [1]	scaled log2 fold change [2]
A12I	0.306	-0.67
A12Q	0.144	0.91
A12V	0.373	–
A12K	0.0242	-0.213
A12H	0.526	0.197
A12N	-0.0628	0.996
A12P	-0.154	-0.436
A12E	0.118	0.751
A12R	-0.455	0.571
A12M	-0.178	-0.222
A12W	0.171	–
A12C	0.0882	0.2
A12F	0.00609	-0.148
A12D	0.231	0.265
A12T	-0.00479	-0.247
A12S	0.0823	1.03
A12L	0.128	-0.0278
L17W	0.321	-0.126
L17Q	-0.0277	-0.517
L17F	-0.361	0.252
L17R	-0.051	0.603
L17C	0.0553	0.966
L17P	-0.107	–
L17I	-0.552	-0.833
L17Y	-0.147	0.613

Variant	scaled log2 fold change [1]	scaled log2 fold change [2]
L17N	0.306	–
L17V	-0.232	–
L17E	0.227	–
L17T	0.262	-0.223
L17K	-0.392	-0.386
L17H	-0.27	-0.167
L17S	0.386	0.458
L17A	-0.194	–
L17G	0.217	-0.178
L17M	0.05	0.0514
L17D	0.342	0.653
G6C	0.339	0.86
G6R	0.173	0.123
G6L	0.106	0.412
G6M	-0.159	-0.651
G6K	0.0797	-0.166
G6F	0.153	-0.294
G6S	-0.502	-0.676
G6D	-0.00796	-0.86
G6Q	0.208	-0.0414
G6I	0.0452	-0.31
G6Y	-0.0292	0.639
G6V	-0.0163	0.974
G6E	0.0669	–
G6N	0.371	0.29

Reference: the supplement of paper PMC12855868
